Reference: patent US20140037641A1

Biological target: MAb E2-9
Assay: inhibition ELISA: soluble Fba peptide against plate-coated Fba-MAP for MAb E2-9

B1: Fba peptide (…), synthetic 14 mer from Candida albicans fructose-bisphosphate aldolase (peptide)
peptide: YGKDVKDLFDYAQE
Question: B1 was tested. Which IC50 did it give?
Answer: 10 µg/mL
